Non-standard residues stand in square brackets, D forms with d. Residues, ends and D or L forms follow the SMILES beside them. No end group written: not given here.
How the values were obtained:
[1] = system: SHSY-5Y neuroblastoma cells; assay: LDH assay, protection against Aβ42-mediated toxicity; format: cell-based; conditions: 5 μM Aβ42 plus 0.1-10 μM peptide, 24 h
Procedure: For cell toxicity assays (Example 3), SHSY-5Y neuroblastoma cells were maintained in 10% Fetal Calf Serum supplemented Dulbecco's Modified Eagle Medium (DMEM, Gibco) under standard mammalian cell culture conditions. The cells were transferred to sterile 96-well growth plates at 20,000 cells/well and 4 wells per condition. To test for any toxic effects of RI-OR2-TAT alone on the cells, they were left to adhere for 24 h before the addition of the inhibitor (at 12.5, 25, 50, 100 and 200 μM), in DMEM. To look at the ability of RI-OR2-TAT to protect against Aβ toxicity, the cell growth medium was changed to Optimem (Invitrogen) and Aβ42, pre-aggregated (at 100 μM) for 24 h at 25° C. in PBS, was added to the cells at a concentration of 5 μM, together with various amounts (0, 0.1, 0.5, 1, 5 or 10 μM) of RI-OR2-TAT. In each case, after a further 24 h incubation period, the viability of the cells was assessed using a CytoTox 96® Non-Radioactive Cytotoxicity Assay (LDH) Assay (Promega) kit.

Aβ42 = target: T1, Aβ42 (Homo sapiens, UniProt P05067); assay: Sandwich immunoassay (6E10) for Aβ oligomers; format: biochemical; conditions: Aβ1-42 12.5 μM
T1 construct: Recombinant Aβ42, Ultrapure, was purchased from rPeptide, Bogart, Ga., USA; purchased rPeptide, Bogart, Ga., USA
T1 sequence (P05067 672-713 limits assumed): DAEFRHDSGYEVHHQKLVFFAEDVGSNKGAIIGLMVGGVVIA

CC(=O)N[C@H](CCCNC(=N)N)C(=O)NCC(=O)N[C@H](Cc1ccccc1)C(=O)N[C@H](Cc1ccccc1)C(=O)N[C@@H](C(=O)N[C@H](CC(C)C)C(=O)N[C@H](CCCCN)C(=O)NCC(=O)N[C@H](CCCNC(=N)N)C(=O)N[C@H](CCCNC(=N)N)C(=O)N[C@H](CCCNC(=N)N)C(=O)N[C@H](CCCNC(=N)N)C(=O)N[C@H](CCC(N)=O)C(=O)N[C@H](CCCNC(=N)N)C(=O)N[C@H](CCCNC(=N)N)C(=O)N[C@H](CCCCN)C(=O)N[C@H](CCCCN)C(=O)N[C@H](CCCNC(=N)N)C(=O)NCC(=O)N[C@H](Cc1ccc(O)cc1)C(N)=O)C(C)C [RI-OR2-TAT, Ac-rGffvlkGrrrrqrrkkrGy-NH2] (Ac-[dR]G[dF][dF][dV][dL][dK]G[dR][dR][dR][dR][dQ][dR][dR][dK][dK][dR]G[dY]-NH2)
effect on Aβ42 toxicity to cells [1]: inhibits the toxic effects of Aβ42

PINPs: RI-OR2-TAT covalently attached to nanoliposomes (cholesterol:sphingomyelin [1:1] with 2.5% maleimide) via an additional cysteine (Ac-[dR]G[dF][dF][dV][dL][dK]G[dR][dR][dR][dR][dQ][dR][dR][dK][dK][dR]G[dY][dC]; not fully specified (residue 21); also: C-terminal D-Cys coupled via its thiol to maleimide lipid of nanoliposome)
inhibition of oligomer formation (Aβ42; 1:100 molar ratio of PINPS (total lipids):Aβ): still substantial
immunoassay signal (time-resolved fluorescence, europium) (Aβ42; PINPs 1:1, 0 hours): 9494 relative fluorescence units
immunoassay signal (time-resolved fluorescence, europium) (Aβ42; PINPs 1:1, 2 hours): 17524 relative fluorescence units
immunoassay signal (time-resolved fluorescence, europium) (Aβ42; PINPs 1:1, 4 hours): 62958 relative fluorescence units
immunoassay signal (time-resolved fluorescence, europium) (Aβ42; PINPs 1:1, 8 hours): 116308 relative fluorescence units
immunoassay signal (time-resolved fluorescence, europium) (Aβ42; PINPs 1:1, 24 hours): 178685 relative fluorescence units
immunoassay signal (time-resolved fluorescence, europium) (Aβ42; PINPs 1:1, 48 hours): 122098 relative fluorescence units
immunoassay signal (time-resolved fluorescence, europium) (Aβ42; PINPs 1:10, 0 hours): 9666 relative fluorescence units
immunoassay signal (time-resolved fluorescence, europium) (Aβ42; PINPs 1:10, 2 hours): 33960 relative fluorescence units
immunoassay signal (time-resolved fluorescence, europium) (Aβ42; PINPs 1:10, 4 hours): 63899 relative fluorescence units
immunoassay signal (time-resolved fluorescence, europium) (Aβ42; PINPs 1:10, 8 hours): 77883 relative fluorescence units
immunoassay signal (time-resolved fluorescence, europium) (Aβ42; PINPs 1:10, 24 hours): 95760 relative fluorescence units
immunoassay signal (time-resolved fluorescence, europium) (Aβ42; PINPs 1:10, 48 hours): 198806 relative fluorescence units
immunoassay signal (time-resolved fluorescence, europium) (Aβ42; PINPs 1:50, 0 hours): 7833 relative fluorescence units
immunoassay signal (time-resolved fluorescence, europium) (Aβ42; PINPs 1:50, 2 hours): 124190 relative fluorescence units
immunoassay signal (time-resolved fluorescence, europium) (Aβ42; PINPs 1:50, 4 hours): 111776 relative fluorescence units
immunoassay signal (time-resolved fluorescence, europium) (Aβ42; PINPs 1:50, 8 hours): 177380 relative fluorescence units
immunoassay signal (time-resolved fluorescence, europium) (Aβ42; PINPs 1:50, 24 hours): 173198 relative fluorescence units
immunoassay signal (time-resolved fluorescence, europium) (Aβ42; PINPs 1:50, 48 hours): 99592 relative fluorescence units
immunoassay signal (time-resolved fluorescence, europium) (Aβ42; PINPs 1:100, 0 hours): 3766 relative fluorescence units
immunoassay signal (time-resolved fluorescence, europium) (Aβ42; PINPs 1:100, 2 hours): 78306 relative fluorescence units
immunoassay signal (time-resolved fluorescence, europium) (Aβ42; PINPs 1:100, 4 hours): 82278 relative fluorescence units
immunoassay signal (time-resolved fluorescence, europium) (Aβ42; PINPs 1:100, 8 hours): 141932 relative fluorescence units
immunoassay signal (time-resolved fluorescence, europium) (Aβ42; PINPs 1:100, 24 hours): 154889 relative fluorescence units
immunoassay signal (time-resolved fluorescence, europium) (Aβ42; PINPs 1:100, 48 hours): 131004 relative fluorescence units

Reference: patent US9579358B2, “Compositions for binding to amyloid proteins” (LANCASTER UNIVERSITY BUSINESS ENTERPRISES LIMITED, priority 2011, dated 2017)
